Results from publication PMC3273594.
Each block holds one molecule with its values, some of them ahead of it.

Tests used:
[1] = target: TOAC labeled wild-type PLB; assay: SDS-PAGE
[2] = target: T1, Wild-type Phospholamban, P61014; assay: SDS-PAGE; conditions: remark: other sources report otherwise
T1 chain: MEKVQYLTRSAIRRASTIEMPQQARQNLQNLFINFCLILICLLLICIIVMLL

stoichiometry N [1]: 5
Molecule: TOAC labeled wild-type PLB

stoichiometry N [2]: 5
B1: Wild-type Phospholamban, P61014 1-52 (natural protein)
chain: T1 chain
